From paper doi:10.1101/659029
Residue numbers refer to the chain shown, from its start.

B1: substrate-1 (RNA-1/Cy5 DNA) (DNA:RNA)
RNA: GGCACCAACACAAAACACAUCUACACUCAACAAU
DNA: GTAGATGTGTTTTGTGTTGGTGCC
B2: substrate-4 (RNA-4/Cy5 DNA) (mixed)
DNA 1: GGCACCAACACAAAACACATCTACACUCAACAAUCACUUU
DNA 2: GTAGATGTGTTTTGTGTTGGTGCC
modifications: strand 1 RNA with DNA at nt 17-24 (duplex end proximal to overhang)
B3: substrate-5 (RNA-5/Cy5 DNA) (mixed)
RNA: B2 DNA 1 with T20U, T22U
DNA: GTAGATGTGTTTTGTGTTGGTGCC
modifications: strand 1 RNA with DNA at nt 9-16 (middle of duplex)

target: Prp43p;Ntr1p (1-120) (Saccharomyces cerevisiae (budding …, UniProt P53131;Q06411 1-767;1-120, |)); assay: EMSA
Sequence (P53131 whole entry, chain 1 of 2): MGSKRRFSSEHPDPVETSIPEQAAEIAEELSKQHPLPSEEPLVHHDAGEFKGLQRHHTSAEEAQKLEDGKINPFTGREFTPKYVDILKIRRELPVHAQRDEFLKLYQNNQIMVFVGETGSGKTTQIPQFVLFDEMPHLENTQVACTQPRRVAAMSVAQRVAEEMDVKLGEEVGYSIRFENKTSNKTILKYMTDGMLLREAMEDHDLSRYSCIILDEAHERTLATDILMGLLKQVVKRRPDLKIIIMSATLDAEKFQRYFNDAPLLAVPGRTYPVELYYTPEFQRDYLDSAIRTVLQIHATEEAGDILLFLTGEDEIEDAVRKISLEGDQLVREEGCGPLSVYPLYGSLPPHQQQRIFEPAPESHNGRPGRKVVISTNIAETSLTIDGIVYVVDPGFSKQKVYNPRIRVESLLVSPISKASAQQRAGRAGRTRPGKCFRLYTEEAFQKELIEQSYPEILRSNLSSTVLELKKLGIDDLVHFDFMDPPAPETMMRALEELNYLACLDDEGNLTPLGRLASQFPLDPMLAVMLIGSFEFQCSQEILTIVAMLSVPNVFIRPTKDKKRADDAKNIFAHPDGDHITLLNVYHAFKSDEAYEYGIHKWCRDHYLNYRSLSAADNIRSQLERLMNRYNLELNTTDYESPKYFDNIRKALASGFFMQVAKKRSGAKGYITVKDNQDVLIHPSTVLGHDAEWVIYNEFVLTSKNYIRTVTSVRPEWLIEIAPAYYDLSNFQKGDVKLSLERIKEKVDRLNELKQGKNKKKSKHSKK
Sequence (Q06411 1-120, chain 2 of 2): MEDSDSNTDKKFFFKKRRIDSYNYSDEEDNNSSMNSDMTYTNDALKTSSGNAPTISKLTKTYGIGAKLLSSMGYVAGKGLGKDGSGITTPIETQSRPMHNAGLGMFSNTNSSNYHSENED

Binding result, binds:
B1
B2
B3
